Results on one variant are retold here after IntAct's records for PubMed 11545742.

B1: DNA polymerase eta (Saccharomyces cerevisiae), Q04049 (parent)
chain: MSKFTWKELIQLGSPSKAYESSLACIAHIDMNAFFAQVEQMRCGLSKEDPVVCVQWNSIIAVSYAARKYGISRMDTIQEALKKCSNLIPIHTAVFKKGEDFWQYHDGCGSWVQDPAKQISVEDHKVSLEPYRRESRKALKIFKSACDLVERASIDEVFLDLGRICFNMLMFDNEYELTGDLKLKDALSNIREAFIGGNYDINSHLPLIPEKIKSLKFEGDVFNPEGRDLITDWDDVILALGSQVCKGIRDSIKDILGYTTSCGLSSTKNVCKLASNYKKPDAQTIVKNDCLLDFLDCGKFEITSFWTLGGVLGKELIDVLDLPHENSIKHIRETWPDNAGQLKEFLDAKVKQSDYDRSTSNIDPLKTADLAEKLFKLSRGRYGLPLSSRPVVKSMMSNKNLRGKSCNSIVDCISWLEVFCAELTSRIQDLEQEYNKIVIPRTVSISLKTKSYEVYRKSGPVAYKGINFQSHELLKVGIKFVTDLDIKGKNKSYYPLTKLSMTITNFDIIDLQKTVVDMFGNQVHTFKSSAGKEDEEKTTSSKADEKTPKLECCKYQVTFTDQKALQEHADYHLALKLSEGLNGAEESSKNLSFGEKRLLFSRKRPNSQHTATPQKKQVTSSKNILSFFTRKK

Variants of B1 are the subject of the assay. To be noted: with pcna_yeast POL30, P15873.
Chain of pcna_yeast POL30, P15873 (P15873 whole entry): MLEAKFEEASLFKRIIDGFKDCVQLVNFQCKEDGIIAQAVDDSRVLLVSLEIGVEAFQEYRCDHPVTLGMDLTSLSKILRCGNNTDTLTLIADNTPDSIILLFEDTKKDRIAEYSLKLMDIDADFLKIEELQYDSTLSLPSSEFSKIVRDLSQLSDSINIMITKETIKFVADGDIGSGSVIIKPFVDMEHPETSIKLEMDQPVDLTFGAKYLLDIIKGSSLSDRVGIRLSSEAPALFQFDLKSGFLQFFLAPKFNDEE
With F627A;F628A, the “effect of a mutation on the interaction” value is recorded as “decreasing interaction”.
